Assay [1] addresses c-Myc (UniProt P01106). In words: flow cytometry, fixed and permeabilized HCT15 cells, negative control.
The target in assay [2] is c-Myc (UniProt P01106). Put plainly: flow cytometry, fixed and permeabilized JEG3 cells, negative control.
For assay [3], the target named is c-Myc (UniProt P01106). In words: flow cytometry, fixed and permeabilized HCT116 cells, negative control (row shifted one column to the left).

Sequence of UniProt P01106 (P01106 whole entry): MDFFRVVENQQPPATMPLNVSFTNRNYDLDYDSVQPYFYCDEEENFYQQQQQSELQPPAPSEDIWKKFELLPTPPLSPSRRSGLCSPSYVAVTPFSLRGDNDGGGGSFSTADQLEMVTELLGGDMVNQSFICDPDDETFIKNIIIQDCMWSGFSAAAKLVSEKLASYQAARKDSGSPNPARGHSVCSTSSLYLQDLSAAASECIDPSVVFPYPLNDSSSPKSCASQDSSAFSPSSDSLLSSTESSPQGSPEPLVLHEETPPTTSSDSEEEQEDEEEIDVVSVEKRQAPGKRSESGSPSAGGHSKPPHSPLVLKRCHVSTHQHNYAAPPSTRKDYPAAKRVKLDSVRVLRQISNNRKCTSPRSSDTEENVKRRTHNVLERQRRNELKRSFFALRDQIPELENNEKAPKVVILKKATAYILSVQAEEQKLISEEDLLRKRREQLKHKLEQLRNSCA

Take “non-immunized rabbit immunoglobulins (antibody)”: the percentage of positive cells above the flow cytometry threshold turned out to be 1.6% with c-Myc [1], 1.1% with c-Myc [2] and 1.5% with c-Myc [3].
